From US20160271157A1, “BETA-CATENIN” (UCL BUSINESS PLC, priority 2013, published 2016)

Key:
Type in all cases: cell-based
[1] = system: β-catenin translocation to the nucleus; assay: β-catenin immunocytochemistry and nuclear co-localization analysis, PC3; conditions: PC3 cells; for Pearson coefficient of nuclear co-localization of β-catenin: Wnt 100 ng/ml vs control, p<0.001 Mann Whitney test
Description: Immunostaining was performed in two different laboratories, independently with the experimenter blind to the identity of the treatment. Either cells used in FluoroDish, post [Ca^2+]i experiments using dyes (see above) or grown in 8 well chamber glass slides (Lab Tek II, Nunc) were used. For Wnt ligand treatment, the culture medium replaced with PBS (without calcium) at 37° C. The experiments were replicated for Wnt ligand or vehicle control as described for [Ca^2+]i measurements. Briefly, Wnt ligands were added and chamber slides incubated at 37° C. for up to 20 min. Chamber wells were washed 3× with 0.5 ml PBS and cells were fixed with 0.5 ml 4% formalin for 30 min at 4° C. Cells were washed 3× with ice cold PBS and stored in 0.5 ml PBS at 4° C. for immunostaining. In some experiments PC3 cells were treated with thaspsigargin as described above.
For immunostaining cells were washed twice for 5 minutes in TBST (20 mM Tris pH 7.4, 0.9% NaCl, 0.1% Tween 20, Sigma). Cells were then incubated in 20% normal goat serum (NGS)/TBST for 30 min at room temperature, the chambers were drained and cells were incubated with mouse anti-β-catenin (ab22656, Abcam, UK) at 1:500 dilution in NGS/TBST overnight at 4° C. Following two further 5 min washes in TBST sections were incubated in goat anti-mouse peroxidase fab (Abcam, UK) at 1:500 dilution for 30 min at room temperature. Following a further two 5 min washes in TBST cells were incubated with tyramide Cy3 (Perkin Elmer) for 10 min at room temperature. Sections were washed twice for 5 min in TBST before nuclear counterstaining with DAPI. After a final two 5 min washes, the chambers were removed and cover slip placed on slides using Permafluor (Thermo Shandon).
Fluorescence immunocytochemical staining for β-catenin expression in cell lines was imaged using Olympus Fluoview 1000 Confocal Microscope (Olympus KeyMed) mounted on an Olympus IX81 inverted microscope using a 20×0.7 NA or 40×1.0 NA dry objective with a zoom of ×3.4′,6-diamidino-2-phenylindole (DAPI, nuclear counterstain) was excited at 405 nm with an emission of 415-500 nm; Cy3 (β-catenin label) signal was excited at 561 nm with an emission spectrum between 570-670 nm. […] Z-stacks of at least 3 fields per sample were imaged and saved in Olympus FV (OIF or OIB) file format.
Nuclear co-localization of β-catenin was calculated by importing FV files for untreated, control or treated cells, into colocalization plugin of Fiji software (http://fiji.sc/Fiji) for Cy3 (β-catenin) and DAPI (nuclear) signals. Pearson co-relation of colocalization were tabulated for 25-90 cells (from 2-5 different passages of cells) using ROI analysis. Statistical significance between untreated and treated cells was calculated using Mann Whitney U test.

[2] = system: Wnt induced calcium release; assay: Wnt induced [Ca2+]i release after preincubation with thapsigargin or membrane potential regulating compounds; conditions: preincubation 5 min; Wnt 9B 0.1 μg/ml as example; CsCl 5 mM; CdCl2 1 mM; TEA 10 mM; Amiodarone 75 μM; Tolbutamide 1 mM; Isradipine 100 μM; Nifedipine 1 mM; Minoxidil 25 μM; Atenolol 37.5 μM; Propanolol 50 μM; Furosemide 150 μM
Description: The imaging protocol was developed in the inventor's laboratory and has been described in detail, elsewhere (Wang at al., (2010) PLoS ONE 5, e10456). Briefly, 100000-200000 PC3, MCF7, 253J or Cos 7 cells were plated on 35 mm FluoroDish (WPI) and grown for 48 h; calcium indicators Fluo-4 (Invitrogen) and FuraRed (Invitrogen) at 1 ng/ml were added to FluoroDish containing only 1 ml of culture medium and incubated for 15-20 min at 37° C. The culture medium was removed and washed (×2) and replaced with 1 ml PBS. Live cell calcium Imaging was performed on an Olympus FluoView FV 1000 confocal microscope (Olympus KeyMed) equipped with a 20× dry objective (numerical aperture=0.75). Calcium indicators were excited with an argon laser line (488 nm) and emissions recorded in the green channel (500-560 nm) for Fluo-4 and red channel (600-700 nm) for FuraRed after addition of vehicle control (PBS) or Wnt X (30-600 ng/ml). Images were acquired every 1.1 or 2.2 seconds for up to 600-800s; image and data acquisition was performed using FluoView 1000 software (Olympus, UK). Fluorescent intensity was measured and data exported as a tab delimited file for further analysis using a spreadsheet. All imaging experiments were performed in duplicate; intracellular calcium at 100 ng/ml was measured in at least 3-12 different passages (passage numbers 25 to 37) of cell line for each Wnt ligand. Wnt 11 was tested in at least 5 different passages at 3 different concentrations. […]
To measure the effect of changes in membrane potential on [Ca^2+]i release using the protocol described above, in some experiments, external solution (PBS) was substituted with varying concentrations of KCl. In other experiments chemical inhibitors of K^+ channels such as TEA, CsCl or tolbutamide (Sigma-Aldrich) were added to the cells grown on FluoroDish, at 37° C., at least 5 min prior to addition of Wnt ligands.
(§1) After image acquisition, regions of interest (ROI) were drawn over individual PC3 cells (up to 25) in a single frame and calcium intensity measurements were made using FluoView 1000 software (Olympus, UK). The measurements were exported as a tab delimited file into a spreadsheet for further analysis and Fluo4/Fura Red ratios were calculated. The waveform, a product of the ratio of Fluo4 and FuraRed over the period of measurement was used to measure the kinetics of the activation of [Ca^2+]i release in PC3 cells, in response to different Wnt ligands. The time constants (rise, dwell and fall times) were calculated by first fitting the Fluo4/FuraRed ratio to a single Gaussian function (Origin Lab Corp., MA); a lower (10%) and upper (90%) amplitude thresholding method was then used to calculate the time constants (s). Statistical significance was calculated using Mann Whitney U test.

[3] = system: PC3 prostate cancer cell line; assay: Live [Ca2+]i imaging (Fluo4/FuraRed ratio) after addition of Wnt ligand; conditions: PC3 cells; for intracellular calcium mobilization ([Ca2+]i release) in response to Wnt ligand: 100 ng/ml Wnt ligand peptide, ratio of Fluo4/Fura Red; for dependence of time constants (dwell time) on Wnt ligand concentration / co-operativity: three concentrations of each Wnt ligand, first-order fit; for rise and fall time of [Ca2+]i release: Wnt peptide 100 ng/ml
Description: The imaging protocol was developed in the inventor's laboratory and has been described in detail, elsewhere (Wang at al., (2010) PLoS ONE 5, e10456). Briefly, 100000-200000 PC3, MCF7, 253J or Cos 7 cells were plated on 35 mm FluoroDish (WPI) and grown for 48 h; calcium indicators Fluo-4 (Invitrogen) and FuraRed (Invitrogen) at 1 ng/ml were added to FluoroDish containing only 1 ml of culture medium and incubated for 15-20 min at 37° C. The culture medium was removed and washed (×2) and replaced with 1 ml PBS. Live cell calcium Imaging was performed on an Olympus FluoView FV 1000 confocal microscope (Olympus KeyMed) equipped with a 20× dry objective (numerical aperture=0.75). Calcium indicators were excited with an argon laser line (488 nm) and emissions recorded in the green channel (500-560 nm) for Fluo-4 and red channel (600-700 nm) for FuraRed after addition of vehicle control (PBS) or Wnt X (30-600 ng/ml). Images were acquired every 1.1 or 2.2 seconds for up to 600-800s; image and data acquisition was performed using FluoView 1000 software (Olympus, UK). Fluorescent intensity was measured and data exported as a tab delimited file for further analysis using a spreadsheet. All imaging experiments were performed in duplicate; intracellular calcium at 100 ng/ml was measured in at least 3-12 different passages (passage numbers 25 to 37) of cell line for each Wnt ligand. Wnt 11 was tested in at least 5 different passages at 3 different concentrations. To test if the Wnt activated calcium release was from [Ca^2+]i stores, in some cases PC3 cells, loaded with calcium dyes, were incubated with 1-5 μM of thapsigargin (Sigma, UK), resuspended in dimethyl sulfoxide (DMSO), for 20 min at 37° C., prior to addition of Wnt ligand and live calcium imaging (as described above).
The experiments were performed using 35 mm, glass bottom, FluoroDish containing 1 ml PBS, at 37° C., to which ligands were added at desired concentration. In a static, non-superfusing assay system there is a lag time before the start of a response, in this case an increase in the intensity of the Fluo4 signal due to the release of free calcium. To measure the diffusion constant under these conditions we used Pontamine Sky Blue (Sigma Aldridge), which fluoresces in the red spectrum with 488 nm excitation, using standard practice for adding ligands; the diffusion constant was measured to be 23.3±2.1 μm·s^−1 (means±S.E.M, n=8). The calcium wave, in response to Wnt ligands, travelled across the FluoroDish.
as §1

Molecule	Wnt ligand induced calcium release after preincubation with MPRC (FIG. 16) [2]	intracellular calcium mobilization ([Ca2+]i release) in response to Wnt ligand [3]	dependence of time constants (dwell time) on Wnt ligand concentration / co-operativity [3]	further results
C[C@@H]1O[C@@H](O[C@H]2C[C@@H](O)[C@]3(CO)[C@H]4[C@H](O)C[C@]5(C)[C@@H](C6=CC(=O)OC6)CC[C@]5(O)[C@@H]4CC[C@]3(O)C2)[C@H](O)[C@H](O)[C@H]1O [Ouabain, reference compound]				β-catenin translocation to the nucleus after pretreatment with Ouabain (FIG. 21) ([1]; Wnt5A treated): increases
COC(=O)C1=C(C)NC(C)=C(C(=O)OC(C)C)C1c1cccc2nonc12 (stereo not shown) [Isradipine]	inhibited			
[Cl][Cd][Cl] [CdCl2]	inhibited			
CC(C)NCC(O)COc1ccc(CC(N)=O)cc1 (stereo not shown) [Atenolol]	inhibited			
CCCCc1oc2ccccc2c1C(=O)c1cc(I)c(OCCN(CC)CC)c(I)c1 [Amiodarone]	inhibited			
Wnt7A: Recombinant Wnt peptide purchased from R&D systems (protein, UniProt O00755 32-349, looked up) Protein Wnt-7a: LGASIICNKIPGLAPRQRAICQSRPDAIIVIGEGSQMGLDECQFQFRNGRWNCSALGERTVFGKELKVGSREAAFTYAIIAAGVAHAITAACTQGNLSDCGCDKEKQGQYHRDEGWKWGGCSADIRYGIGFAKVFVDAREIKQNARTLMNLHNNEAGRKILEENMKLECKCHGVSGSCTTKTCWTTLPQFRELGYVLKDKYNEAVHVEPVRASRNKRPTFLKIKKPLSYRKPMDTDLVYIEKSPNYCEEDPVTGSVGTQGRACNKTAPQASGCDLMCCGRGYNTHQYARVWQCNCKFHWCCYVKCNTCSERTEMYTCK		induce intracellular calcium mobilization	no difference	
Wnt3A: Recombinant Wnt peptide purchased from R&D systems (protein, UniProt P56704 19-352, looked up) Protein Wnt-3a: SYPIWWSLAVGPQYSSLGSQPILCASIPGLVPKQLRFCRNYVEIMPSVAEGIKIGIQECQHQFRGRRWNCTTVHDSLAIFGPVLDKATRESAFVHAIASAGVAFAVTRSCAEGTAAICGCSSRHQGSPGKGWKWGGCSEDIEFGGMVSREFADARENRPDARSAMNRHNNEAGRQAIASHMHLKCKCHGLSGSCEVKTCWWSQPDFRAIGDFLKDKYDSASEMVVEKHRESRGWVETLRPRYTYFKVPTERDLVYYEASPNFCEPNPETGSFGTRDRTCNVSSHGIDGCDLLCCGRGHNARAERRREKCRCVFHWCCYVSCQECTRVYDVHTCK		induce intracellular calcium mobilization	negative co-operativity	rise and fall time of [Ca2+]i release [3]: shortest; Pearson coefficient of nuclear co-localization of β-catenin [1]: significant increase
Wnt11: Recombinant Wnt peptide purchased from R&D systems (protein, UniProt O96014 25-354, looked up) Protein Wnt-11: IKWLALSKTPSALALNQTQHCKQLEGLVSAQVQLCRSNLELMHTVVHAAREVMKACRRAFADMRWNCSSIELAPNYLLDLERGTRESAFVYALSAAAISHAIARACTSGDLPGCSCGPVPGEPPGPGNRWGGCADNLSYGLLMGAKFSDAPMKVKKTGSQANKLMRLHNSEVGRQALRASLEMKCKCHGVSGSCSIRTCWKGLQELQDVAADLKTRYLSATKVVHRPMGTRKHLVPKDLDIRPVKDSELVYLQSSPDFCMKNEKVGSHGTQDRQCNKTSNGSDSCDLMCCGRGYNPYTDRVVERCHCKYHWCCYVTCRRCERTVERYVCK		did not mobilize [Ca^2+]i		
Wnt4: Recombinant Wnt peptide purchased from R&D systems (protein, UniProt P56705 23-351, looked up) Protein Wnt-4: SNWLYLAKLSSVGSISEEETCEKLKGLIQRQVQMCKRNLEVMDSVRRGAQLAIEECQYQFRNRRWNCSTLDSLPVFGKVVTQGTREAAFVYAISSAGVAFAVTRACSSGELEKCGCDRTVHGVSPQGFQWSGCSDNIAYGVAFSQSFVDVRERSKGASSSRALMNLHNNEAGRKAILTHMRVECKCHGVSGSCEVKTCWRAVPPFRQVGHALKEKFDGATEVEPRRVGSSRALVPRNAQFKPHTDEDLVYLEPSPDFCEQDMRSGVLGTRGRTCNKTSKAIDGCELLCCGRGFHTAQVELAERCSCKFHWCCFVKCRQCQRLVELHTCR		induce intracellular calcium mobilization	negative co-operativity	rise and fall time of [Ca2+]i release [3]: slowest; Pearson coefficient of nuclear co-localization of β-catenin [1]: significant increase
